Results taken from patent US20260193356A1.

What was measured:
[1] = target: monkey (Macaca fascicularis) PDL1 (fasPDL1) expressed on CHO-S cells (CHO-S-fasPDL1) (monkey (Macaca fascicularis)); test: flow cytometry on CHO-S-fasPDL1 cells; antibody 0.1 µg/mL
[2] = target: human PDL1 (hPDL1) expressed on CHO-S cells (CHO-S-hPDL1) (human) (UniProt Q9NZQ7); test: flow cytometry on CHO-S-hPDL1 cells; antibody 0.1 µg/mL
[3] = target: dog (Canis lupus) PDL1 (dPDL1) expressed on CHO-S cells (CHO-S-dPDL1) (dog (Canis lupus)); test: flow cytometry on CHO-S-dPDL1 cells; antibody 0.1 µg/mL
[4] = target: mouse (Mus musculu) PDL1 (mPDL1) expressed on CHO-S cells (CHO-S-mPDL1) (mouse) (UniProt Q9EP73); test: flow cytometry on CHO-S-mPDL1 cells; antibody 0.1 µg/mL
[5] = target: mouse (Mus musculu) PDL1 (mPDL1) expressed on CHO-S cells (CHO-S-mPDL1) (mouse) (UniProt Q9EP73); test: flow cytometry on CHO-S-mPDL1 cells; antibody 1 µg/mL
[6] = target: dog (Canis lupus) PDL1 (dPDL1) expressed on CHO-S cells (CHO-S-dPDL1) (dog (Canis lupus)); test: flow cytometry on CHO-S-dPDL1 cells; antibody 1 µg/mL
[7] = target: human PDL1 (hPDL1) expressed on CHO-S cells (CHO-S-hPDL1) (human) (UniProt Q9NZQ7); test: flow cytometry on CHO-S-hPDL1 cells; antibody 1 µg/mL
[8] = target: monkey (Macaca fascicularis) PDL1 (fasPDL1) expressed on CHO-S cells (CHO-S-fasPDL1) (monkey (Macaca fascicularis)); test: flow cytometry on CHO-S-fasPDL1 cells; antibody 1 µg/mL
[9] = target: mouse (Mus musculu) PDL1 (mPDL1) expressed on CHO-S cells (CHO-S-mPDL1) (mouse) (UniProt Q9EP73); test: flow cytometry on CHO-S-mPDL1 cells, secondary antibody only; 0.1 µg/mL
[10] = target: human PDL1 (hPDL1) expressed on CHO-S cells (CHO-S-hPDL1) (human) (UniProt Q9NZQ7); test: flow cytometry on CHO-S-hPDL1 cells, secondary antibody only; 0.1 µg/mL
[11] = target: monkey (Macaca fascicularis) PDL1 (fasPDL1) expressed on CHO-S cells (CHO-S-fasPDL1) (monkey (Macaca fascicularis)); test: flow cytometry on CHO-S-fasPDL1 cells, secondary antibody only; 1 µg/mL
[12] = target: dog (Canis lupus) PDL1 (dPDL1) expressed on CHO-S cells (CHO-S-dPDL1) (dog (Canis lupus)); test: flow cytometry on CHO-S-dPDL1 cells, secondary antibody only; 1 µg/mL
[13] = target: monkey (Macaca fascicularis) PDL1 (fasPDL1) expressed on CHO-S cells (CHO-S-fasPDL1) (monkey (Macaca fascicularis)); test: flow cytometry on CHO-S-fasPDL1 cells, secondary antibody only; 0.1 µg/mL
[14] = target: human PDL1 (hPDL1) expressed on CHO-S cells (CHO-S-hPDL1) (human) (UniProt Q9NZQ7); test: flow cytometry on CHO-S-hPDL1 cells, secondary antibody only; 1 µg/mL
[15] = target: mouse (Mus musculu) PDL1 (mPDL1) expressed on CHO-S cells (CHO-S-mPDL1) (mouse) (UniProt Q9EP73); test: flow cytometry on CHO-S-mPDL1 cells, secondary antibody only; 1 µg/mL
[16] = target: dog (Canis lupus) PDL1 (dPDL1) expressed on CHO-S cells (CHO-S-dPDL1) (dog (Canis lupus)); test: flow cytometry on CHO-S-dPDL1 cells, secondary antibody only; 0.1 µg/mL

Chain of human PDL1 (hPDL1) expressed on CHO-S cells (CHO-S-hPDL1) (human) (Q9NZQ7 19-290 limits assumed): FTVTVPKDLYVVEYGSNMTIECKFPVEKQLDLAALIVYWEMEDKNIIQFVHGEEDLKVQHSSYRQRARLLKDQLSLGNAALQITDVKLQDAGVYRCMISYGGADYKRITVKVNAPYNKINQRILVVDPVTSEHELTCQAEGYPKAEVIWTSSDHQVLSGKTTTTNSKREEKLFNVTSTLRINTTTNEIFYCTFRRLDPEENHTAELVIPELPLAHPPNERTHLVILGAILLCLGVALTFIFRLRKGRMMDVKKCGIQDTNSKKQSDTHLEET
Chain of monkey (Macaca fascicularis) PDL1 (fasPDL1) expressed on CHO-S cells (CHO-S-fasPDL1) (monkey (Macaca fascicularis)) (Q9NZQ7 other isoform, or with tags, fused parts or gaps limits assumed): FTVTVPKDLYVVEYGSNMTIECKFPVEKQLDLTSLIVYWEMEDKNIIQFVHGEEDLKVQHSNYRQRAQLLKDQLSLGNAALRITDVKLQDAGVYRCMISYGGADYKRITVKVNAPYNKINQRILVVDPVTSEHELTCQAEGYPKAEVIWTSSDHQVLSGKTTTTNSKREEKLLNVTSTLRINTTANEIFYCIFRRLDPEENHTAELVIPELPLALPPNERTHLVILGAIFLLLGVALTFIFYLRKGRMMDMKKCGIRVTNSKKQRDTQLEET
Chain of dog (Canis lupus) PDL1 (dPDL1) expressed on CHO-S cells (CHO-S-dPDL1) (dog (Canis lupus)) (chain, as listed by the source limits assumed, form in doubt): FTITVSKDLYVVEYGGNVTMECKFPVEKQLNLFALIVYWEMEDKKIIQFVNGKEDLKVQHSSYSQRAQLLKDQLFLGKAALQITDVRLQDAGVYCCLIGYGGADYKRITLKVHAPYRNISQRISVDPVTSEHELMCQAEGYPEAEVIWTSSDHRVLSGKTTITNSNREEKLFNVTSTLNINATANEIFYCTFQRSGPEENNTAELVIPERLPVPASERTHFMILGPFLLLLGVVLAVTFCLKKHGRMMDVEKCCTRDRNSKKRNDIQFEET
Chain of mouse (Mus musculu) PDL1 (mPDL1) expressed on CHO-S cells (CHO-S-mPDL1) (mouse) (Q9EP73 19-290 limits assumed): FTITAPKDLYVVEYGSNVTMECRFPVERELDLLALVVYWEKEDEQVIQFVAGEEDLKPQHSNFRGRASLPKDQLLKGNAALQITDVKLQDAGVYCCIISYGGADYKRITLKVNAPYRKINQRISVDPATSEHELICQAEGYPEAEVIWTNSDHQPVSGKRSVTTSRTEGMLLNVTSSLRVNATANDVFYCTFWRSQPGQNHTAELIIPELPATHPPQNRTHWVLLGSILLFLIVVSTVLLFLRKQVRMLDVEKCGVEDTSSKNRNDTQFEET

| Percentage of Positive Cells (%) [1] [%] | Percentage of Positive Cells (%) [2] [%] | Percentage of Positive Cells (%) [3] [%] | Percentage of Positive Cells (%) [4] [%] | Percentage of Positive Cells (%) [5] [%] | Percentage of Positive Cells (%) [6] [%] | Percentage of Positive Cells (%) [7] [%] | Percentage of Positive Cells (%) [8] [%] | Percentage of Positive Cells (%) [9] [%] | Percentage of Positive Cells (%) [10] [%] | Percentage of Positive Cells (%) [11] [%] | Percentage of Positive Cells (%) [12] [%] | Percentage of Positive Cells (%) [13] [%] | Percentage of Positive Cells (%) [14] [%] | Percentage of Positive Cells (%) [15] [%] | Percentage of Positive Cells (%) [16] [%] | Substance |
| --- | --- | --- | --- | --- | --- | --- | --- | --- | --- | --- | --- | --- | --- | --- | --- | --- |
| 1.87 | 2.01 | 14.2 | 2.26 | 3.52 | 4.28 | 3.05 | 2.53 |  |  |  |  |  |  |  |  | ISO (isotype control, antibody with the same IgG1 subtype but targeting an unrelated target) |
|  |  |  |  |  |  |  |  | 1.04 | 1.48 | 2.34 | 1.76 | 1.38 | 1.13 | 2.31 | 1.68 | secondary antibody anti-hIgG-Fc-Alex Flour 647 (RL1-H) (Jackson ImmunoResearch Laboratories, Inc., 109-606-170) |
